# In US20260069728A1, “MULTI-TARGETING COMPOUND AND USE THEREOF” (Chengdu Shetai Medical Technology Co., Ltd., priority 2023, published 2026):
# Like-named read-outs stand apart in the source and are kept apart here. *1 amine or outer side, *2 acyl side, *3 side chain or, on linkers, in order; H or OH if unused. Where a SMILES comes first, the peptide text is derived from it. Bridges are numbered along the chain shown (N, C = ends). [ ]: non-standard residue; d: D form. The star is where a group is joined. X1 = N#C[C@@H]1CC(F)(F)CN1C(=O)CNC(=O)c1ccnc2ccc(OCCCN3CCN(*)CC3)cc12; DOTA = O=C(O)CN1CCN(CC(=O)O)CCN(CC(=O)*)CCN(CC(=O)O)CC1; 2Nal = N[C@@H](Cc1ccc2ccccc2c1)C(=O)O; Cit = NC(=O)NCCC[C@H](N)C(=O)O; Suc = O=C(CCC(=O)[*:2])[*:1]; AEEA = NCCOCCOCC(=O)O
# Columns and labels:
# [1] = test system: subcutaneous xenograft tumors (U87 MG cells); test: Small animal PET imaging and biodistribution study; assay type: in vivo, NSG mice
# How it was run: (§1)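 NSG mice bearing ~150 mm^3 subcutaneous U87 MG tumours received ~7.4 MBq of 68Ga-labelled tracer i.v., with micro-PET/CT static 20-min 3D scans at 30, 60 and 120 min. For biodistribution, mice were euthanised at 30/60/120 min, or 30/60/90 min for SDYD07, SDYD08 and SDYD07-1. Tissue radioactivity was decay-corrected and expressed as SUV and %ID/g.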
# [2] = Small animal PET imaging and biodistribution study; assay type: in vivo, NSG mice; conditions: NSG, mouse, in vivo, iv, 7.4 MBq, total radioactivity
# How it was run: as §1
# [3] = absolute uptake value in the tumor
Structure (SMILES),"radioactive uptake in the tumor sites (in words) ([1]; mouse, in vivo)","tissue uptake at 0.5 h [2, 3] [%ID/g]","tissue uptake at 1 h [2, 3] [%ID/g]","radioactive uptake in the tumor sites (in words) ([1]; tail vein injection, U87 MG tumor-bearing NSG mice)","tissue uptake at 0.5 h ([2]; 30 minutes post-injection, read-out: absolute uptake value in the tumor) [%ID/g]","tissue uptake at 1 h ([2]; 60 minutes post-injection, read-out: absolute uptake value in the tumor) [%ID/g]"
"N#C[C@@H]1CC(F)(F)CN1C(=O)CNC(=O)c1ccnc2ccc(OCCCN3CCN(C(=O)CCC(=O)N[C@@H](CCCCNC(=O)CN4CCN(CC(=O)O)CCN(CC(=O)O)CCN(CC(=O)O)CC4)C(=O)NCCOCCOCC(=O)NCCOCCOCC(=O)N[C@@H](CCCNC(=N)N)C(=O)N[C@@H](CCCNC(=N)N)C(=O)N[C@@H](Cc4ccc5ccccc5c4)C(=O)N[C@H]4CSSC[C@@H](C(=O)N[C@@H](CCCNC(=N)N)C(N)=O)NC(=O)[C@H](CCCNC(N)=O)NC(=O)[C@H](CCCNC(=N)N)NC(=O)[C@H](Cc5ccc(O)cc5)NC(=O)[C@@H]5CCCN5C(=O)[C@H](CCCCN)NC(=O)[C@H](CCCCN)NC(=O)[C@H](CCCNC(N)=O)NC(=O)[C@H](Cc5ccc(O)cc5)NC4=O)CC3)cc12 [^68Ga-SDYD01, metal not drawn] ({X1-Suc}-K(DOTA)[AEEA][AEEA]RR[2Nal]CY[Cit]KKPYR[Cit]CR-NH2; disulfide 7-16)",significant radioactive uptake in the tumor sites,≥ 10,≥ 10,–,–,–
"CCCCCC(=O)N[C@H]1CSCc2cc(CSCCNC(=O)[C@H](CCCCNC(=O)CN3CCN(CC(=O)O)CCN(CC(=O)O)CCN(CC(=O)O)CC3)NC(=O)COCCOCCNC(=O)COCCOCCNC(=O)CCN3C(=O)CC(SCCNC(=O)CCC(=O)NCc4ccc(NC(=O)COCC(=O)N[C@H](Cc5ccccc5)C(=O)N[C@@H](CCC(N)=O)C(=O)N[C@@H](Cc5c[nH]c6ccccc56)C(=O)N[C@@H](C)C(=O)N[C@H](C(=O)NCC(=O)N[C@@H](Cc5c[nH]cn5)C(=O)NC(CC(C)C)CC(C)C)C(C)C)cc4)C3=O)cc(c2)CSC[C@@H](C(=O)O)NC(=O)[C@H](Cc2ccccc2)NC(=O)[C@H](CCC(N)=O)NC(=O)C([C@@H](C)O)NC(=O)[C@@H]2CCCN2C(=O)[C@@H]2CCCN2C1=O (stereo partly drawn) [^68Ga-SDYD04, metal not drawn]",–,–,–,significant radioactive uptake in the tumor sites,≥ 10,≥ 10
